According to US20190201496A1:

Molecular target: mβ2m
Experiment: SPR; pH 6

Kd | Substance
1030 nM | Mouse AFP N-His
280 nM | Human AFP N-His
